# According to the nanobody polyreactivity screen of Harvey et al. (2022):
# Experiment: yeast display, Sf9 membrane polyspecificity reagent, FACS + sequencing; frameworks hold sequencing errors
# Method in brief: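 A synthetic nanobody library was expressed on Saccharomyces cerevisiae BJ5465 by galactose induction for 36–48 hours. The library was stained for 1 hour at 4 °C with 10% biotinylated, detergent-solubilized Sf9 membrane reagent and enriched with streptavidin microbeads before FACS. Low and high (top ~1%) gates were set on anti-HA fluorescence for expression and streptavidin fluorescence for reagent binding, and each polyreactivity label reflects the gate of origin.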
row,Sequence,polyreactivity (PSR sort gate)
1,QVQLVESGGGLVQAGGSLRLSCAASGRIFKRNAMGWYRQAPGKDTELVAGISSSGGSTYYADSVKGRFTISRDNAKNTVYLQMNSLKPEDTAVYYCAAVGYGLRPSYDYWGQGTQVTVSS,high polyreactivity
2,QVQLVESGGGLVQAGGSLRLSCAASGRIFGTNAMGWYRQAPGKERELVATITRGGGNTYYADSVKGRFTISRDNAKNTVYLQMNSLKPEDTAVYYCAAYDSVQKYWILGFDYWGQGTQVTVSS,low polyreactivity
3,QVQLVESGGGLVQAGGSLRLSCAASGSTFAKYAMGWYRQAPGKERELVASIRLSGGSTYYADSVKGRFTISRDNAKNTVYLQMNSLKPEETAVYYCNKQFATFYYCFDYYYWGQGTQVTVSS,low polyreactivity
4,QVQLVESGGGLVQAGGSLRLSCAASGSIFSIYAMGWYRQAPGKERELVAAIDSGTSTTYADSVKGRFTISRDNAKNTVYLQMNSLKPEDTAVYYCAAALYSDVAAVATYVYYWGQGTQVTVSS,low polyreactivity
5,QVQLVESGGGLVQAGGSLRLSCAASGRTFWVYAMGWYRQAPGKERELVASISWSVGSTYYADSVKGRFTISRDNAKNTVYLQMNSLKPEDTAVYYCNKTTLLTVEYDYWGQGSQVTVSS,low polyreactivity
6,QVQLVESGGGLVQAGGSLRLSCAASGRIFNEYAMGWYRQAPGKERELVAAITYSDDSTYYADSVKGRFTISRDNAKNTVYLQMNSLKPEDTAVYYCNADTPVWDGHAYPVDYWGQGTQVTVSS,low polyreactivity
7,QVQLVESGGGLVQAGGSLRLSCAASGRTFYYYAMGWYRQAPGKERELVAAITGSGANTYYADSVKGRFTISRDNAKNTVYLQMNSLKPEDTAVYYCNTRTLVAMGYWGQGTQVTVSS,high polyreactivity
8,QVQLVESGGGLVQAGGSLRLSCAASGSTFTLYAKGWYRQAPGKERELVAAINGAGSTYYADSVKGRFTISRDNAKNTVYLQMNSLKPEDTAVYYCAKDLQYGWYDYWGQGTQVTVSS,low polyreactivity
9,QVQLVESGGGLVQAGGSLRLSCAASGSIFVYYAMGWYRQAPGKERELVAGISRTGGRTYYADSVKGRFTISRDNAKITVYLQMNSLKPEDTAVYYCAAVSYYKSYGEFDYWGQGTQVTVSS,high polyreactivity
10,QVQLVESGGGLVQAGGSLRLSCAASGRIFDYYAMGSYRQAPGNERELVDAISSGDNTYYADSVKGRFTISRDNAKNTVYLQMNSLKPEDTAVYYCAADVSRFGYYGIGFYYWRQGTQVTVSS,low polyreactivity
11,QVQLVESGGGLVQAGGSLRLSCAASGSIFRGNAMGCYRQAPWKARELVAGINRAGSTKYADSVKGRFTISRDNAKNTVYVQMISLKQEDTEVYYCAAVRYERGLWSDYWGQGTQVTVSS,high polyreactivity
12,QVQLVESGGGLVHAGGILSLSSAASGFTIGYYSMGWYRQAPGKERELVAAINWSGGRTYYGDSVKGRFTISRDIAKNTVYFQMTSLKPEDTAVYYCAADPNKGRQMYYWGQGSQVTVSS,high polyreactivity
13,QVQLVESGGGLVQAGGSLRLSCAASGRIFLRYVMGWYRQAPGKERELVAAIRSNGGSTYADSVKGRFTISRDNAKNTVYLQMNSLKPEDTAVYYCAARYFNTKGSFVVGYGYWGQGSQVTVSS,high polyreactivity
14,QVQLVESGGGLVQAGGSLRLSCAASGSIFPLNAMGWYRQSPGKERELVATISWRGGITYYADSVKGRFTISRDNAKNTVYLQMNSLKPEDTAVYYCATVGRWNSLWYRYRYDYWGQGTQVTVSS,low polyreactivity
15,QVQLVESGGGLVQAGGSLRLSCDASGRIFAYYTMGWNRQAPGKERELVAAINQSGGSTYYADSVKGRITISRDNAKNTDYLQMNILKPEDTAVYYCAAKRYSMYARRYAYVYWGQVTQVTVSS,low polyreactivity
16,QVQLVESVGGLVQAGGSLRLSSAASGLIFNEYVMGWYRQAPGKERELVAGISRIGGSTYYADSVKGRFTISRDNAKNTVYLQMKSLKQEDTAVYYCARPNLLSGDYWGQGTQVTVSS,high polyreactivity
17,QVQLVESGGGLLQAGGSLRLSCAASGIIFFKYAMGWYRQAPGKERELVAAINRSGGSTYYADSVKGRFTISRDNAKNSVSLQMNSLKPEDTAVYYCNARLTLRSYDYWGQGTQVTVSS,low polyreactivity
